Measurements taken from PMC2910040.

Experiments:
[1] = molecular target: T1, BLMHM (BLM helicase module) (Homo sapiens, UniProt P54132 642-1290); experiment: stopped-flow mdADP fluorescence amplitude titration
[2] = molecular target: T1, BLMHM (BLM helicase module); experiment: HEX fluorescence change
[3] = molecular target: T1, BLMHM (BLM helicase module); experiment: stopped-flow mdADP fluorescence amplitude titration; remark: listed apart in the source
[4] = molecular target: T1, BLMHM (BLM helicase module); experiment: fluorescence titration
[5] = molecular target: T1, BLMHM (BLM helicase module); experiment: stopped-flow mdADP fluorescence amplitude titration; remark: listed apart in the source

T1 sequence (P54132 642-1290): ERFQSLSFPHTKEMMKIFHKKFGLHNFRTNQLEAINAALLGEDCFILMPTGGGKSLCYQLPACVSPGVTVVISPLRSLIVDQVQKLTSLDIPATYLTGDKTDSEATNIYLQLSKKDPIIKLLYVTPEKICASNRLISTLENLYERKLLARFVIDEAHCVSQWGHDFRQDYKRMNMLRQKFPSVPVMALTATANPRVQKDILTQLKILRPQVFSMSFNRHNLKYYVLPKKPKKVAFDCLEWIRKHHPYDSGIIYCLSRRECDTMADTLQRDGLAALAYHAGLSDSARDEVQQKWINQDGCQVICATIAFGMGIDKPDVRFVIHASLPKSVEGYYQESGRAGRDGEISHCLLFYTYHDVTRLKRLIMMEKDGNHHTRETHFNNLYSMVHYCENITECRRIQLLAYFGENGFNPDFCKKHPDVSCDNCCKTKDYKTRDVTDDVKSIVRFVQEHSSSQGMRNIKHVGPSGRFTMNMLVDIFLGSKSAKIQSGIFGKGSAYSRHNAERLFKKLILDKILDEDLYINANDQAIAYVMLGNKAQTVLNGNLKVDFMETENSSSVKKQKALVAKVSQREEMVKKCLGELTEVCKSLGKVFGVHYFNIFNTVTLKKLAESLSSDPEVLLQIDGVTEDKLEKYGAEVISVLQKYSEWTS

Work on TTTTTTTTTTTTTTTTTT (ssDNA) [dT18] yielded a Kd [1] of under 0.1 µM.

TTTTTTTTTTTTTTTTTTTT (ssDNA) [5'-HEX-dT20]: binds [2].

In the case of TTTTTTTTTTTTTTTTTTTTTTTTTTTTTTTTTTTT (ssDNA) [dT36], the Kd [3] is reported as under 0.1 µM.

B1: DNA_2 (5'-HEX-DNA_54mer) (ssDNA)
DNA: CGTTGCGCAATTAAGCTCTAAGCCATCCGCAAAAATGACCTCTTATCAAAAGGA
B1 showed a Kd [4] of 0.1 ± 0.02 µM.

B2: dT54 (ssDNA)
DNA: TTTTTTTTTTTTTTTTTTTTTTTTTTTTTTTTTTTTTTTTTTTTTTTTTTTTTT
B2 was tested, and the Kd [5] was under 0.1 µM.
